Test results as given in patent publication US20250049852A1 (SHANGHAI IASO BIOTECHNOLOGY, published 2025).

How the values were obtained:
[1] = molecular target: T1, human GPRC5D expressed on the cell surface (CHO-K1-GPRC5D cells; MM1S, U266, 8226, H929 cells) (human, UniProt Q9NZD1 1-345); experiment: cell-based or functional assay
[2] = molecular target: T1, human GPRC5D expressed on the cell …; experiment: cell-based or functional assay; remark: listed apart in the source
[3] = molecular target: T1, human GPRC5D expressed on the cell …; experiment: cell-based or functional assay; remark: listed apart in the source
[4] = molecular target: T2, Streptavidin (UniProt P22629 37-163, limits assumed); experiment: ELISA, coated antigen, detection HRP anti-human IgG
T2 construct: also called SA

[5] = molecular target: T3, Biotinylated Recombinant human BAFFR Protein (human, UniProt Q96RJ3 7-71, limits assumed, biotinylated); experiment: as above
T3 construct: The label says that it carries a his tag; also called BAFFR-his-Bio
T3 sequence (looked up): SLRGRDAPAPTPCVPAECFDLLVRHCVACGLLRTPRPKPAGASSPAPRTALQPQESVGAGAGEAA

[6] = molecular target: T4, Biotinylated Human IL-10 Protein (human, UniProt P22301 19-178, biotinylated); experiment: as above
T4 construct: also called IL10-Bio

[7] = molecular target: T2, Streptavidin; experiment: phage ELISA, coated antigen, detection anti-M13 then HRP anti-mouse IgG
[8] = molecular target: T3, Biotinylated Recombinant human BAFFR …; experiment: as above
[9] = molecular target: T4, Biotinylated Human IL-10 Protein; experiment: as above
[10] = molecular target: T5, Human GPRC5D Protein-VLP (human, UniProt Q9NZD1 1-345); experiment: as above
T5 construct: Bought reagent; also called GPRC5D-VLP; target antigen

[11] = molecular target: T6, murine-derived GPRC5D overexpressed on CHOS cells (CHOS-mouseGPRC5D) (mouse (murine-derived), UniProt Q9JIL6 1-344); experiment: FACS titration on CHOS-mouse-GPRC5D cells (lower graph)
T6 construct: whole, on cells; also called GPRC5D murine-derived positive cell line
T6 sequence (looked up): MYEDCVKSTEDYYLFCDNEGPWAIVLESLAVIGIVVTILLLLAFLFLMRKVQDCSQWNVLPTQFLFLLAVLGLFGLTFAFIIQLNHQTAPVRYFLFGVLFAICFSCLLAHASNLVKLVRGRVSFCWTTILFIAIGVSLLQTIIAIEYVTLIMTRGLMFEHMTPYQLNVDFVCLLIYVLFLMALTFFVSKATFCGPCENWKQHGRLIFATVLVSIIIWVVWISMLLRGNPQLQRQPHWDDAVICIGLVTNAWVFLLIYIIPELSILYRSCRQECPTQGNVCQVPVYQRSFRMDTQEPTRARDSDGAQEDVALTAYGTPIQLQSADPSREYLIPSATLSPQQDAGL

[12] = molecular target: T2, Streptavidin; experiment: ELISA, coated antigen, purified IgG-form antibody, detection HRP anti-human IgG
[13] = molecular target: T3, Biotinylated Recombinant human BAFFR …; experiment: as above
[14] = molecular target: T4, Biotinylated Human IL-10 Protein; experiment: as above
[15] = molecular target: T5, Human GPRC5D Protein-VLP; experiment: as above
[16] = molecular target: T1, human GPRC5D expressed on the cell …; experiment: FACS titration (300 nM to 0.00384 nM) on CHO-K1-GPRC5D cells
[17] = molecular target: T7, monkey-derived GPRC5D overexpressed on CHOS cells (CHOS-macaqueGPRC5D) (macaque (monkey-derived)); experiment: FACS titration on CHOS-macaque-GPRC5D cells (upper graph)
T7 construct: whole, on cells; also called CHOS-macaqaueGPRC5D; GPRC5D monkey-derived positive cell line

T4 sequence (P22301 19-178 limits assumed): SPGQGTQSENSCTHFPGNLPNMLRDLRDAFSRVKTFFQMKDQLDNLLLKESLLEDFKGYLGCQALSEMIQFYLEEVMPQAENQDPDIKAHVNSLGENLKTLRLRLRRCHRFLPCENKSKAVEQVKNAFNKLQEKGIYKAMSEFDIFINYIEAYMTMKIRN
T1 sequence (Q9NZD1 whole entry): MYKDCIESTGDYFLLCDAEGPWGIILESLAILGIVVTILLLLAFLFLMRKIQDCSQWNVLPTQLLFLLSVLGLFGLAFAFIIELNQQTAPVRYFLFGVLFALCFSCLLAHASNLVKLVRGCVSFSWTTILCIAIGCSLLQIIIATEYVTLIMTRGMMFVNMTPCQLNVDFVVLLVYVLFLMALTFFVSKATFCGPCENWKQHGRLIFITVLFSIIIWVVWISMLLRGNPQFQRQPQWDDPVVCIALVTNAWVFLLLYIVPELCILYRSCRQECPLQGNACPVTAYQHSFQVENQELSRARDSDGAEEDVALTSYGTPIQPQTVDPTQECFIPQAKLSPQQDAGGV
T5 sequence (Q9NZD1 whole entry): as above
T2 sequence (P22629 37-163 limits assumed): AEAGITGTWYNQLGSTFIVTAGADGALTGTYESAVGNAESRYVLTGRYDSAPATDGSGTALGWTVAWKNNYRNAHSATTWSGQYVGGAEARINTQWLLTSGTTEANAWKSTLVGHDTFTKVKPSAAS

B1: GPRC5D CAR 2436 (#39), on CAR-T cells (other)
chain: EVQLLESGGGLVQPGGSLRLSCAASGFIFSSYGMGWVRQAPGKGLEWVSSISSSGDYTYYADSVKGRFTISRDNSKNTLYLQMNSLRAEDTAVYYCARMSFRRYDHWGQGTLVTVSSFVPVFLPAKPTTTPAPRPPTPAPTIASQPLSLRPEACRPAAGGAVHTRGLDFACDIYIWAPLAGTCGVLLLSLVITLYCNHRNKRGRKKLLYIFKQPFMRPVQTTQEEDGCSCRFPEEEEGGCELRVKFSRSADAPAYQQGQNQLYNELNLGRREEYDVLDKRRGRDPEMGGKPRRKNPQEGLYNELQKDKMAEAYSEIGMKGERRRGKGHDGLYQGLSTATKDTYDALHMQALPPR
CD107a+/CAR+CD8+% after co-incubation with 8226 (GPRC5D+) cells [1]: 76.5%
CD107a+/CAR+CD8+% after co-incubation with MM.1S (GPRC5D+) cells [1]: 63.5%
CD107a+/CAR+CD8+% after co-incubation with U266 (GPRC5D+) cells [1]: 78.8%
Proliferation fold, 1st round stimulation by target cells 8226 [2]: 10.1 fold
Proliferation fold, 2nd round stimulation by target cells 8226 [2]: 51.2 fold
Proliferation fold, 3rd round stimulation by target cells 8226 [2]: 146 fold
Proliferation fold, 4th round stimulation by target cells 8226 [2]: 330 fold
Proliferation fold, 5th round stimulation by target cells 8226 [2]: 595 fold
Proliferation fold, 6th round stimulation by target cells 8226 [2]: 1160 fold
Proliferation fold, 7th round stimulation by target cells 8226 [2]: 2050 fold
IFN-γ (IFN+/CAR+ %) after co-incubation with 8226-luc (GPRC5D+) cells [3]: 54.8%
IFN-γ (IFN+/CAR+ %) after co-incubation with H929-luc (GPRC5D+) cells [3]: 57.6%
IFN-γ (IFN+/CAR+ %) after co-incubation with MM1.s-luc (GPRC5D+) cells [3]: 50.9%
IFN-γ (IFN+/CAR+ %) after co-incubation with U266-luc (GPRC5D+) cells [3]: 49%
TNF-α (TNFα+/CAR+ %) after co-incubation with 8226-luc (GPRC5D+) cells [3]: 45%
TNF-α (TNFα+/CAR+ %) after co-incubation with H929-luc (GPRC5D+) cells [3]: 51.6%
TNF-α (TNFα+/CAR+ %) after co-incubation with MM1.s-luc (GPRC5D+) cells [3]: 38.5%
TNF-α (TNFα+/CAR+ %) after co-incubation with U266-luc (GPRC5D+) cells [3]: 42.5%

B2: Positive Benchmark1 Ab (GC5B596) (antibody)
scFv: GSQVQLVQSGAEVKKPGASVKVSCKASGYSFTGYTMNWVRQAPGQGLEWMGLINPYNSDTNYAQKLQGRVTMTTDTSTSTAYMELRSLRSDDTAVYYCARVALRVALDYWGQGTLVTVSSGGGGSGGGGSGGGGSDIQMTQSPSSLSASVGDRVTITCKASQNVATHVGWYQQKPGKAPKRLIYSASYRYSGVPSRFSGSGSGTEFTLTISNLQPEDFATYYCQQYNRYPYTFGQGTKLEIKSR
notes: […] variable region from GC5B596 of CN 109715667 A. As positive control antibody it was detected with anti-human IgG, so it carried a human constant part; also called control antibody benchmark 1
binding result [4]: no binding
binding result [5]: no binding
binding result [6]: no binding

B3: CAR 2254 (Benchmark1), on CAR-T cells (other)
chain: GSQVQLVQSGAEVKKPGASVKVSCKASGYSFTGYTMNWVRQAPGQGLEWMGLINPYNSDTNYAQKLQGRVTMTTDTSTSTAYMELRSLRSDDTAVYYCARVALRVALDYWGQGTLVTVSSGGGGSGGGGSGGGGSDIQMTQSPSSLSASVGDRVTITCKASQNVATHVGWYQQKPGKAPKRLIYSASYRYSGVPSRFSGSGSGTEFTLTISNLQPEDFATYYCQQYNRYPYTFGQGTKLEIKSRFVPVFLPAKPTTTPAPRPPTPAPTIASQPLSLRPEACRPAAGGAVHTRGLDFACDIYIWAPLAGTCGVLLLSLVITLYCNHRNKRGRKKLLYIFKQPFMRPVQTTQEEDGCSCRFPEEEEGGCELRVKFSRSADAPAYQQGQNQLYNELNLGRREEYDVLDKRRGRDPEMGGKPRRKNPQEGLYNELQKDKMAEAYSEIGMKGERRRGKGHDGLYQGLSTATKDTYDALHMQALPPR
CD107a+/CAR+CD8+% after co-incubation with 8226 (GPRC5D+) cells [1]: 45%
CD107a+/CAR+CD8+% after co-incubation with MM.1S (GPRC5D+) cells [1]: 50.7%
CD107a+/CAR+CD8+% after co-incubation with U266 (GPRC5D+) cells [1]: 9.68%
Proliferation fold, 1st round stimulation by target cells 8226 [2]: 7.15 fold
Proliferation fold, 2nd round stimulation by target cells 8226 [2]: 41.9 fold
Proliferation fold, 3rd round stimulation by target cells 8226 [2]: 101 fold
Proliferation fold, 4th round stimulation by target cells 8226 [2]: 172 fold
Proliferation fold, 5th round stimulation by target cells 8226 [2]: 240 fold
Proliferation fold, 6th round stimulation by target cells 8226 [2]: 321 fold
Proliferation fold, 7th round stimulation by target cells 8226 [2]: 313 fold
IFN-γ (IFN+/CAR+ %) after co-incubation with 8226-luc (GPRC5D+) cells [3]: 25.1%
IFN-γ (IFN+/CAR+ %) after co-incubation with H929-luc (GPRC5D+) cells [3]: 12.2%
IFN-γ (IFN+/CAR+ %) after co-incubation with MM1.s-luc (GPRC5D+) cells [3]: 31.1%
IFN-γ (IFN+/CAR+ %) after co-incubation with U266-luc (GPRC5D+) cells [3]: 5.25%
TNF-α (TNFα+/CAR+ %) after co-incubation with 8226-luc (GPRC5D+) cells [3]: 12%
TNF-α (TNFα+/CAR+ %) after co-incubation with H929-luc (GPRC5D+) cells [3]: 5.21%
TNF-α (TNFα+/CAR+ %) after co-incubation with MM1.s-luc (GPRC5D+) cells [3]: 17.7%
TNF-α (TNFα+/CAR+ %) after co-incubation with U266-luc (GPRC5D+) cells [3]: 1.12%

B4: clone #39, single domain antibody displayed as monoclonal phage (phage level) (VHH)
VHH: EVQLLESGGGLVQPGGSLRLSCAASGFIFSSYGMGWVRQAPGKGLEWVSSISSSGDYTYYADSVKGRFTISRDNSKNTLYLQMNSLRAEDTAVYYCARMSFRRYDHWGQGTLVTVSS
notes: Tested as a monoclonal phage antibody (M13 display, detected with anti-M13); also called clone number 39
binding result [7]: no binding
binding result [8]: no binding
binding result [9]: no binding
binding result [10]: binds

B5: Clone 39, antibody in the IgG form (protein level) (antibody, V domains shown)
VH: EVQLLESGGGLVQPGGSLRLSCAASGFIFSSYGMGWVRQAPGKGLEWVSSISSSGDYTYYADSVKGRFTISRDNSKNTLYLQMNSLRAEDTAVYYCARMSFRRYDHWGQGTLVTVSS
notes: Expressed from an IgG expression plasmid in CHOS cells, purified by Protein A 'into the IgG form', detected with anti-human IgG Fc gamma; also called anti-GPRC5D IgG
binding result [11]: binds
binding result [12]: no binding
binding result [13]: no binding
binding result [14]: no binding
binding result [15]: binds
EC50 [16]: 6.93 nM
TOP (MFI) [16]: 2800 MFI

B6: clone #18, single domain antibody displayed as monoclonal phage (phage level) (VHH)
VHH: QVQLQQWGAGLLKPSETLSLTCAVYGGSFSGYYWSWIRQPPGKGLEWIGEINHSGSTNYNPSLKSRVTISVDTSKNQFSLKLSSVTAADTAVYYCARARRYGGRTRFDPWGQGTLVTVSS
notes: Tested as a monoclonal phage antibody (M13 display, detected with anti-M13); also called clone number 18
binding result [7]: no binding
binding result [8]: no binding
binding result [9]: no binding
binding result [10]: binds

B7: Clone 18, antibody in the IgG form (protein level) (antibody, V domains shown)
VH: QVQLQQWGAGLLKPSETLSLTCAVYGGSFSGYYWSWIRQPPGKGLEWIGEINHSGSTNYNPSLKSRVTISVDTSKNQFSLKLSSVTAADTAVYYCARARRYGGRTRFDPWGQGTLVTVSS
notes: as for B5
EC50 (read off the curve) [11]: ~2 nM
binding result [12]: no binding
binding result [13]: no binding
binding result [14]: no binding
binding result [15]: binds
EC50 (read off the curve) [17]: ~10 nM
EC50 [16]: 1.58 nM
TOP (MFI) [16]: 3460 MFI

B8: clone #41, single domain antibody displayed as monoclonal phage (phage level) (VHH)
VHH: EVQLLESGGGLVQPGGSLRLSCAASGFSFSGYIMGWVRQAPGKGLEWVSSTSSSGTETYYADSVKGRFTISRDNSKNTLYLQMNSLRAEDTAVYYCARYYSKYGRSYHVDSWGQGTLVTVSS
notes: Tested as a monoclonal phage antibody (M13 display, detected with anti-M13); also called clone number 41
binding result [7]: no binding
binding result [8]: no binding
binding result [9]: no binding
binding result [10]: binds

B9: Clone 41, antibody in the IgG form (protein level) (antibody, V domains shown)
VH: EVQLLESGGGLVQPGGSLRLSCAASGFSFSGYIMGWVRQAPGKGLEWVSSTSSSGTETYYADSVKGRFTISRDNSKNTLYLQMNSLRAEDTAVYYCARYYSKYGRSYHVDSWGQGTLVTVSS
notes: as for B5
binding result [11]: binds
binding result [12]: no binding
binding result [13]: no binding
binding result [14]: no binding
binding result [15]: binds
EC50 (read off the curve) [17]: ~7 nM
EC50 [16]: 41 nM
TOP (MFI) [16]: 3690 MFI
